Drawing on paper PMC7844235, “Redirecting substrate regioselectivity using engineered ΔN123-GBD-CD2 branching sucrases for the production of pentasaccharide repeating units of S. flexneri 3a, 4a and 4b haptens” (Scientific Reports, 2021), this text covers Km, Vmax and kcat for three proteins.

The chains are these.
B1: ΔN123-GBD-CD2 branching sucrase (Leuconostoc mesenteroides) (protein)
chain: QAGHYITKNGNDWQYDTNGELAKGLRQDSNGKLRYFDLTTGIQAKGQFVTIGQETYYFSKDHGDAQLLPMVTEGHYGTITLKQGQDTKTAWVYRDQNNTILKGLQNINGTLQFFDPYTGEQLKGGVAKYDDKLFYFESGKGNLVSTVAGDYQDGHYISQDGQTRYADKQNQLVKGLVTVNGALQYFDNATGNQIKNQQVIVDGKTYYFDDKGNGEYLFTNTLDMSTNAFSTKNVAFNHDSSSFDHTVDGFLTADTWYRPKSILANGTTWRDSTDKDMRPLITVWWPNKNVQVNYLNFMKANGLLTTAAQYTLHSDQYDLNQAAQDVQVAIERRIASEHGTDWLQKLLFESQNNNPSFVKQQFIWNKDSEYHGGGDAWFQGGYLKYGNNPLTPTTNSDYRQPGNAFDFLLANDVDNSNPVVQAENLNWLHYLMNFGTITAGQDDANFDSIRIDAVDFIHNDTIQRTYDYLRDAYQVQQSEAKANQHISLVEAGLDAGTSTIHNDALIESNLREAATLSLTNEPGKNKPLTNMLQDVDGGTLITDHTQNSTENQATPNYSIIHAHDKGVQEKVGAAITDATGADWTNFTDEQLKAGLELFYKDQRATNKKYNSYNIPSIYALMLTNKDTVPRMYYGDMYQDDGQYMANKSIYYDALVSLMTARKSYVSGGQTMSVDNHGLLKSVRFGKDAMTANDLGTSATRTEGLGVIIGNDPKLQLNDSDKVTLDMGAAHKNQKYRAVILTTRDGLATFNSDQAPTAWTNDQGTLTFSNQEINGQDNTQIRGVANPQVSGYLAVWVPVGASDNQDARTAATTTENHDGKVLHSNAALDSNLIYEGFSNFQPKATTHDELTNVVIAKNADVFNNWGITSFEMAPQYRSSGDHTFLDSTIDNGYAFTDRYDLGFNTPTKYGTDGDLRATIQALHHANMQVMADVVDNQVYNLPGKEVVSATRAGVYGNDDATGFGTQLYVTNSVGGGQYQEKYAGQYLEALKAKYPDLFEGKAYDYWYKNYANDGSNPYYTLSHGDRESIPADVAIKQWSAKYMNGTNVLGNGMGYVLKDWHNGQYFKLDGDKSTLPQI
B2: ΔN123-GBD-CD2 branching sucrase (Leuconostoc mesenteroides; F2136L/W2135S) (protein)
chain: QAGHYITKNGNDWQYDTNGELAKGLRQDSNGKLRYFDLTTGIQAKGQFVTIGQETYYFSKDHGDAQLLPMVTEGHYGTITLKQGQDTKTAWVYRDQNNTILKGLQNINGTLQFFDPYTGEQLKGGVAKYDDKLFYFESGKGNLVSTVAGDYQDGHYISQDGQTRYADKQNQLVKGLVTVNGALQYFDNATGNQIKNQQVIVDGKTYYFDDKGNGEYLFTNTLDMSTNAFSTKNVAFNHDSSSFDHTVDGFLTADTWYRPKSILANGTTWRDSTDKDMRPLITVWWPNKNVQVNYLNFMKANGLLTTAAQYTLHSDQYDLNQAAQDVQVAIERRIASEHGTDWLQKLLFESQNNNPSFVKQQFIWNKDSEYHGGGDASLQGGYLKYGNNPLTPTTNSDYRQPGNAFDFLLANDVDNSNPVVQAENLNWLHYLMNFGTITAGQDDANFDSIRIDAVDFIHNDTIQRTYDYLRDAYQVQQSEAKANQHISLVEAGLDAGTSTIHNDALIESNLREAATLSLTNEPGKNKPLTNMLQDVDGGTLITDHTQNSTENQATPNYSIIHAHDKGVQEKVGAAITDATGADWTNFTDEQLKAGLELFYKDQRATNKKYNSYNIPSIYALMLTNKDTVPRMYYGDMYQDDGQYMANKSIYYDALVSLMTARKSYVSGGQTMSVDNHGLLKSVRFGKDAMTANDLGTSATRTEGLGVIIGNDPKLQLNDSDKVTLDMGAAHKNQKYRAVILTTRDGLATFNSDQAPTAWTNDQGTLTFSNQEINGQDNTQIRGVANPQVSGYLAVWVPVGASDNQDARTAATTTENHDGKVLHSNAALDSNLIYEGFSNFQPKATTHDELTNVVIAKNADVFNNWGITSFEMAPQYRSSGDHTFLDSTIDNGYAFTDRYDLGFNTPTKYGTDGDLRATIQALHHANMQVMADVVDNQVYNLPGKEVVSATRAGVYGNDDATGFGTQLYVTNSVGGGQYQEKYAGQYLEALKAKYPDLFEGKAYDYWYKNYANDGSNPYYTLSHGDRESIPADVAIKQWSAKYMNGTNVLGNGMGYVLKDWHNGQYFKLDGDKSTLPQI
B3: ΔN123-GBD-CD2 branching sucrase (Leuconostoc mesenteroides; F2163G) (protein)
chain: QAGHYITKNGNDWQYDTNGELAKGLRQDSNGKLRYFDLTTGIQAKGQFVTIGQETYYFSKDHGDAQLLPMVTEGHYGTITLKQGQDTKTAWVYRDQNNTILKGLQNINGTLQFFDPYTGEQLKGGVAKYDDKLFYFESGKGNLVSTVAGDYQDGHYISQDGQTRYADKQNQLVKGLVTVNGALQYFDNATGNQIKNQQVIVDGKTYYFDDKGNGEYLFTNTLDMSTNAFSTKNVAFNHDSSSFDHTVDGFLTADTWYRPKSILANGTTWRDSTDKDMRPLITVWWPNKNVQVNYLNFMKANGLLTTAAQYTLHSDQYDLNQAAQDVQVAIERRIASEHGTDWLQKLLFESQNNNPSFVKQQFIWNKDSEYHGGGDAWFQGGYLKYGNNPLTPTTNSDYRQPGNAGDFLLANDVDNSNPVVQAENLNWLHYLMNFGTITAGQDDANFDSIRIDAVDFIHNDTIQRTYDYLRDAYQVQQSEAKANQHISLVEAGLDAGTSTIHNDALIESNLREAATLSLTNEPGKNKPLTNMLQDVDGGTLITDHTQNSTENQATPNYSIIHAHDKGVQEKVGAAITDATGADWTNFTDEQLKAGLELFYKDQRATNKKYNSYNIPSIYALMLTNKDTVPRMYYGDMYQDDGQYMANKSIYYDALVSLMTARKSYVSGGQTMSVDNHGLLKSVRFGKDAMTANDLGTSATRTEGLGVIIGNDPKLQLNDSDKVTLDMGAAHKNQKYRAVILTTRDGLATFNSDQAPTAWTNDQGTLTFSNQEINGQDNTQIRGVANPQVSGYLAVWVPVGASDNQDARTAATTTENHDGKVLHSNAALDSNLIYEGFSNFQPKATTHDELTNVVIAKNADVFNNWGITSFEMAPQYRSSGDHTFLDSTIDNGYAFTDRYDLGFNTPTKYGTDGDLRATIQALHHANMQVMADVVDNQVYNLPGKEVVSATRAGVYGNDDATGFGTQLYVTNSVGGGQYQEKYAGQYLEALKAKYPDLFEGKAYDYWYKNYANDGSNPYYTLSHGDRESIPADVAIKQWSAKYMNGTNVLGNGMGYVLKDWHNGQYFKLDGDKSTLPQI

Substrate in the data set: OC[C@H]1O[C@@](CO)(O[C@H]2O[C@H](CO)[C@@H](O)[C@H](O)[C@H]2O)[C@@H](O)[C@@H]1O
The data set is described as follows: sucrose hydrolysis, HPLC-CAD, Michaelis-Menten fit. Format: biochemical, Leuconostoc mesenteroides. The settings on record: sucrose as sole substrate, 50 mM sodium acetate pH 5.1, 30 °C. The text has this:
sucrose hydrolysis, HPLC-CAD, Michaelis-Menten fit on ΔN123-GBD-CD2 branching sucrase
As for B1, the Km turned out to be 30.5 ± 7.2 mM, the Vmax worked out at 77.5 µmol/min/mg and the kcat came to 162 ± 12.7 s⁻¹.

For B2, the Km is 8.8 ± 1.0 mM, the maximal velocity (Vmax) turned out to be 17.7 µmol/min/mg and the turnover number (kcat) came out at 36.9 ± 0.9 s⁻¹.

Consider B3, for which the Michaelis-Menten constant (Km) is on record as 7.0 ± 1.2 mM, the Vmax was 16.8 µmol/min/mg and the kcat was found to be 35.1 ± 0.9 s⁻¹.

By Km is commonly meant the substrate concentration at which the rate is half of its maximum. In general, Vmax refers to the rate approached at saturating substrate. Broadly, the kcat is the number of substrate molecules converted per active site and unit of time at saturation.
